Source: PMC3158780

Molecular target: insoluble type I collagen (UniProt P02453)
Assay: co-sedimentation; batch binding to 5 mg insoluble substrate; protein 15 µg/ml in 80 µl buffer A (50 mM Tris-HCl, 10 mM CaCl2, 3 M NaCl, pH 8.0), 0°C, 60 min; supernatant after centrifugation on SDS-PAGE

- percent bound: 50%
Substance: isolated CTE domain of SptA (CTE*) (domain or fragment)
